Substitutions are numbered along the chain they refer to. Names may count otherwise. Like-named read-outs stand apart in the source and are kept apart here.

Common to all, as to assay: enzyme inhibition kinetics
Assay [1] deals with T1, ADAMTS5-2 (ADAMTS-5 lacking the C-terminal TS-2 domain) (human, UniProt Q9UNA0 262-874).
T1 sequence (looked up): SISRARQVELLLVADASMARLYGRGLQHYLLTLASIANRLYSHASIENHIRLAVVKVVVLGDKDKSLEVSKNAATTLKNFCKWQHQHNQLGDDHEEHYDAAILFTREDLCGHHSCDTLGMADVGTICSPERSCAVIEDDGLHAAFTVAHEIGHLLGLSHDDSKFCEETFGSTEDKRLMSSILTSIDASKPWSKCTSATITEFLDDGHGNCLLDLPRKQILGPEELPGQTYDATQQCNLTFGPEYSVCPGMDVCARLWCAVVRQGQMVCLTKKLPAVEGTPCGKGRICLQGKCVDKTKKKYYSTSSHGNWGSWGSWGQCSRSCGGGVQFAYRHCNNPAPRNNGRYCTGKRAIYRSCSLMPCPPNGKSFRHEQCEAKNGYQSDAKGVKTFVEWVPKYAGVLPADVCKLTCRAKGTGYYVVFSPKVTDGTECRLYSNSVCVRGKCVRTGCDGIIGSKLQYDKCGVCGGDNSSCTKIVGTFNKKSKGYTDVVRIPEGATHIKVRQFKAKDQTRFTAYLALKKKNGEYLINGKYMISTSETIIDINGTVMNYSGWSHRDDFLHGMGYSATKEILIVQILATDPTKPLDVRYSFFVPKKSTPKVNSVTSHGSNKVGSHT

The next assay addresses T2, MMP-2 (UniProt P08253 110-660).
T2 sequence (looked up): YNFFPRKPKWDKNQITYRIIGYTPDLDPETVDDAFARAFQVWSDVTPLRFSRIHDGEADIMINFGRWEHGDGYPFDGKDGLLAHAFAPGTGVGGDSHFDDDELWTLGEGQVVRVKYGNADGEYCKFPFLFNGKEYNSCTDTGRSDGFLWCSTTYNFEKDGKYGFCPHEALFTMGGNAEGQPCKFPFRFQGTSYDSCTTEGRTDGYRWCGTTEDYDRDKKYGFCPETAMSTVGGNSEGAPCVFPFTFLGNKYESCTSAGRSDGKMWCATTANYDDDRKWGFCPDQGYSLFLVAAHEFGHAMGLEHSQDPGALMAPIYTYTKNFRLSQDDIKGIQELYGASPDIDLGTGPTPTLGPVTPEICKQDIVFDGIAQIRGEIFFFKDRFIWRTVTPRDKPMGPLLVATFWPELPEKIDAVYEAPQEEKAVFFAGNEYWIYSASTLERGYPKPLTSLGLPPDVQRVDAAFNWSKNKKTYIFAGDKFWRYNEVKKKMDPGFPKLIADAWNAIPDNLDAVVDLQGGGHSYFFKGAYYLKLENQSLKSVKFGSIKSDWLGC

A further assay addresses MMP-3 catalytic domain (UniProt P08254 100-272).
The target in assay [2] is T3, Recombinant human ADAMTS-5 (adamalysin with thrombospondin motifs 5), full-length (human, UniProt Q9UNA0 262-930).
T3 sequence (looked up): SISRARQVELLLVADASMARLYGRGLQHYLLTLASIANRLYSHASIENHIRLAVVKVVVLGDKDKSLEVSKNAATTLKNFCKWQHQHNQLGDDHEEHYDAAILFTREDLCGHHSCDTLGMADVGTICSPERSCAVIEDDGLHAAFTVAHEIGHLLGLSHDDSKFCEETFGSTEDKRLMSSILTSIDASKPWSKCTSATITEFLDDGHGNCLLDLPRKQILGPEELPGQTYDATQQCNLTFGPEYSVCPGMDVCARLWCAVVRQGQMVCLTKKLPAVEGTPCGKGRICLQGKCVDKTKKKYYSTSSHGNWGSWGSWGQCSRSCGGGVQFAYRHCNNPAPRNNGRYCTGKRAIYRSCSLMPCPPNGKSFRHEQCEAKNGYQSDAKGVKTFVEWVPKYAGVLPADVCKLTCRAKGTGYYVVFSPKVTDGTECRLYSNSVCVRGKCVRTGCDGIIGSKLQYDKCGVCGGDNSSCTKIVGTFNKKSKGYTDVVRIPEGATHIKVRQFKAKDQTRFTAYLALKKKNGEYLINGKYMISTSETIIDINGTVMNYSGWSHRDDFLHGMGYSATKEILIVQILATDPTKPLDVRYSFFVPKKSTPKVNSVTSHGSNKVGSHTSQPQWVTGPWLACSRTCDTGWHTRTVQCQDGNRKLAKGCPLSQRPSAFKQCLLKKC

Assay [3] addresses T4, MMP (matrix metalloproteinase)-1 catalytic domain (UniProt P03956 100-269).
T4 sequence (looked up): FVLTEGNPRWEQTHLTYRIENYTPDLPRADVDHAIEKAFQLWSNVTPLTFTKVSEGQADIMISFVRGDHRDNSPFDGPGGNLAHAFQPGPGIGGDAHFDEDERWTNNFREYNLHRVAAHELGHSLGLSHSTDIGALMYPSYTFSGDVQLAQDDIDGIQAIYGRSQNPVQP

The target in assay [4] is T3, Recombinant human ADAMTS-5 (adamalysin …). This is another data set of the same source.

MMP-3 catalytic domain, sequence (P08254 100-272): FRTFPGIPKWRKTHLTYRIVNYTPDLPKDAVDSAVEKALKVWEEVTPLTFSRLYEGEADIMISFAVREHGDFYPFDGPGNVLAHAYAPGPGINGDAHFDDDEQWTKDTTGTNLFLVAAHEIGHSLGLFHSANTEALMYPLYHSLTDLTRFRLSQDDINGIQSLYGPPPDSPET

B1: TIMP-3(K26/27/30/76E+R163/K165Q) (natural protein, human, UniProt P35625 24-211, looked up)
chain: CTCSPSHPQDAFCNSDIVIRAKVVGEELVEEGPFGTLVYTIKQMKMYRGFTKMPHVQYIHTEASESLCGLKLEVNEYQYLLTGRVYDGKMYTGLCNFVERWDQLTLSQRKGLNYRYHLGCNCKIKSCYYLPCFVTSKNECLWTDMLSNFGYPGYQSKHYACIQQQGGYCSWYRGWAPPDKSIINATDP
A word on the Ki: it is the dissociation constant of the complex between target and ligand, obtained from inhibition or displacement. Molecule B1 gave an inhibitory constant (Ki) in assay [1] of 1.34 ± 0.04 nM.

B2: Recombinant human TIMP-3 (tissue inhibitor of metalloproteinases 3) (natural protein, UniProt P35625 24-211, looked up)
chain: B1 chain with E26K, E27K, E30K, E76K, Q163R, Q165K
Regarding B2, the inhibitory constant (Ki) with MMP-2 is 0.16 ± 0.002 nM; with MMP-3 catalytic domain it was 0.9 ± 0.28 nM; in assay [2] it was 0.56 ± 0.03 nM; in assay [3] it was 0.43 ± 0.12 nM.

B3: TIMP-1 (tissue inhibitor of metalloproteinases 1) (natural protein)
chain: not shown
On to B3, for which the Ki in assay [2] came to 734 ± 0.16 nM; in assay [4], 522 ± 0.24 nM.

For the origin of these results see article PMC3369482 (Biochemical Journal, 2012).
